Tests used:
[1] = target: cell surface-associated glypican-3 (GPC3) (human) (UniProt P51654); test: co-IP of GPC3 and Wnt3a from HepG2 xenograft tumor tissue after three weeks of 20 mg/kg HS20 (mutated form); blocked partner Wnt3a (FIG. 17B)
[2] = target: T1, cell surface-associated glypican-3 (GPC3) (human, UniProt P51654 25-554, two heparan sulfate (HS) chains on the C-terminal portion; GPI anchor); test: cell-based or functional assay
[3] = target: T1, cell surface-associated glypican-3 …; test: cell-based or functional assay; remark: listed apart in the source
GPC3 C-terminal fragment = target: T2, GPC3 C-terminal fragment (human, UniProt P51654 359-559, limits assumed); test: phage ELISA on recombinant GPC3 fragments (FIG. 5B)
T2 construct: domain: C-terminal fragment; also called C-terminus alone
T2 sequence (looked up): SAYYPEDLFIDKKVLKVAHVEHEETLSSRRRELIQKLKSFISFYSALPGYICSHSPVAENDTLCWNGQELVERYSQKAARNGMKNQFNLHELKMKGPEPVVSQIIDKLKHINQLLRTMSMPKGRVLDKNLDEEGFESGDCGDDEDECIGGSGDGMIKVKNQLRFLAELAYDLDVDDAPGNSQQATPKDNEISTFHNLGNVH

GPC3 N-terminal fragment = target: T3, GPC3 N-terminal fragment (human, UniProt P51654 25-358); test: as above
T3 construct: domain: N-terminal fragment; also called N-terminus alone

[4] = target: T4, recombinant human GPC3 with His tag (GPC3-his) (human, UniProt P51654 25-559, heparan sulfate chains); test: ELISA on recombinant GPC3 protein (FIG. 13B)
T4 construct: range 25-559; also called GPC3 alone; purified GPC3; not shown: six-histidine tag

[5] = target: T4, recombinant human GPC3 with His tag …; test: ELISA on recombinant GPC3 protein against HS molecules alone (FIG. 13B)
[6] = target: cell surface-associated glypican-3 (GPC3) (human) (UniProt P51654); test: cell-based or functional assay
[7] = target: T4, recombinant human GPC3 with His tag …; test: ELISA, purified GPC3 coated at 1 µg/ml, HN3-hFc titrated, one-site binding fit (FIG. 4A)
[8] = target: T1, cell surface-associated glypican-3 …; test: flow cytometry on G1 cells, HN3-hFc titrated, one-site binding fit (FIG. 4B)

## HS20 Mt (HS20 IgG with the N-glycosylation site of the VL removed) (antibody)
[1]
  percent of the GPC3-Wnt3a interaction blocked: 70%

B1: HN3(VH)-PE38 immunotoxin (other)
chain: QVQLVQSGGGLVQPGGSLRLSCAASYFDFDSYEMSWVRQAPGKGLEWIGSIYHSGSTYYNPSLKSRVTISRDNSKNTLYLQMNTLRAEDTATYYCARVNMDRFDYWGQGTLVTVSSSAAKASGGPEGGSLAALTAHQACHLPLETFTRHRQPRGWEQLEQCGYPVQRLVALYLAARLSWNQVDQVIRNALASPGSGGDLGEAIREQPEQARLALTLAAAESERFVRQGTGNDEAGAANGPADSGDALLERNYPTGAEFLGDGGDVSFSTRGTQNWTVERLLQAHRQLEERGYVFVGYHGTFLEAAQSIVFGGVRARSQDLDAIWRGFYIAGDPALAYGYAQDQEPDARGRIRNGALLRVYVPRSSLPGFYRTSLTLAAPEAAGEVERLIGHPLPLRLDAITGPEEEGGRLETILGWPLAERTVVIPSAIPTDPRNVGGDLDPSSIPDKEQAISALPDYASQPGKPPREDLK
[2]
  cytotoxicity IC50 (WST-8), G1 cells, molar: 0.2 pM
  cytotoxicity IC50 (WST-8), Hep3B cells, molar: 0.4 pM
  cytotoxicity IC50 (WST-8), HepG2 cells, molar: 10 nM
  cytotoxicity IC50 (WST-8), Huh-1 cells, molar: 1.2 pM
  cytotoxicity IC50 (WST-8), Huh-7 cells, molar: 1.3 nM
[3]
  cytotoxicity IC50 (WST-8), G1 cells: 0.01 ng/mL
  cytotoxicity IC50 (WST-8), Hep3B cells: 0.02 ng/mL
  cytotoxicity IC50 (WST-8), HepG2 cells: 549 ng/mL
  cytotoxicity IC50 (WST-8), Huh-1 cells: 0.06 ng/mL
  cytotoxicity IC50 (WST-8), Huh-4 cells: > 1000 ng/mL
  cytotoxicity IC50 (WST-8), Huh-7 cells: 64 ng/mL

B2: HN3 single-domain VH displayed on phage (clone HN3) (VHH)
VHH: QVQLVQSGGGLVQPGGSLRLSCAASYFDFDSYEMSWVRQAPGKGLEWIGSIYHSGSTYYNPSLKSRVTISRDNSKNTLYLQMNTLRAEDTATYYCARVNMDRFDYWGQGTLVTVSS
GPC3 C-terminal fragment
  binding result: no binding
GPC3 N-terminal fragment
  binding result: no binding

B3: HS20 human IgG (HS20 Wt mAb) (antibody, V domains shown)
VH: EVQLLESGGGLVQPGGSLRLSCAASGFTFSSYAMSWVRQAPGKGLEWVSTIQKQGLPTEYADSVKGRFTISRDNSKNTLYLQMNSLRAEDTAVYYCAKNRAKFDYWGQGTLVTVSS
VL: DIQMTQSPSSLSASVGDRVTITCRASQSISSYLNWYQQKPGKAPKLLIYNASMLQSGVPSRFSGSGSGTDFTLTISSLQPEDFATYYCQQNRGFPLTFGQGTKVEIK
modifications: N-glycosylation site at residue 50 of SEQ ID NO: 16 (CDR2)
notes: also called HS20 IgG; HS20 mAb
[4]
  Kd: 0.75 nM
[5]
  fold stronger binding than on HS alone: ≥ 1000 fold
[6]
  decrease in wound closure efficiency (wound healing assay, Hep3B cells, 50 µg/ml HS20): > 30%

B4: HN3-human Fc fusion protein (HN3-hFc) (Fc fusion, not shown: a dimerising Fc or GST)
chain: QVQLVQSGGGLVQPGGSLRLSCAASYFDFDSYEMSWVRQAPGKGLEWIGSIYHSGSTYYNPSLKSRVTISRDNSKNTLYLQMNTLRAEDTATYYCARVNMDRFDYWGQGTLVTVSSS
notes: also called HN3 human mAb
[2]
  cell growth inhibition (WST-8), Hep3B cells, IC50: ~50 µg/mL
  cell growth inhibition (WST-8), Huh-7 cells, IC50: ~50 µg/mL
[7]
  Kd: 0.64 nM
[8]
  Kd: 0.15 nM
